Measurements: the supplement of paper PMC10567573

B1: MNAT1 (parent)
chain: LEEALYEYQPLQIETYGPHVPELE

Variants of: B1
Experiment: protein stability index of a GFP-peptide fusion (GPS, HEK-293T) (PSI 1-6); higher = more stable
Conditions: c terminus: a fixed tail appended
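Also: lentivirally expressed fusions sorted by FACS into six bins by GFP to DsRed ratio, PSI derived from sequencing read proportions per bin multiplied by bin number.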

| Variant | protein stability index |
| --- | --- |
| LEEALYEYQPLQIETYGPHVNELE [P21N] | 2.47 |
| LEEALYEYQPLQIETYGPHVHELE [P21H] | 2.58 |
| LEEALYEYQPLQIETYGPHVSELE [P21S] | 2.41 |
| LEEALYEYQPLQIETYGPHVCELE [P21C] | 3.78 |
| LEEALYEYQPLQIETYGPHVVELE [P21V] | 2.19 |
| LEEALYEYQPLQIETYGPHVKELE [P21K] | 3.01 |
| LEEALYEYQPLQIETYGPHVGELE [P21G] | 1.97 |
| LEEALYEYQPLQIETYGPHVFELE [P21F] | 1.44 |
| LEEALYEYQPLQIETYGPHVEELE [P21E] | 3.67 |
| LEEALYEYQPLQIETYGPHVIELE [P21I] | 2.2 |
| LEEALYEYQPLQIETYGPHVRELE [P21R] | 2.96 |
| LEEALYEYQPLQIETYGPHVAELE [P21A] | 2.92 |
| LEEALYEYQPLQIETYGPHVQELE [P21Q] | 3.42 |
| LEEALYEYQPLQIETYGPHVLELE [P21L] | 2.79 |
| LEEALYEYQPLQIETYGPHVYELE [P21Y] | 1.75 |
| LEEALYEYQPLQIETYGPHVTELE [P21T] | 2.56 |
| LEEALYEYQPLQIETYGPHVDELE [P21D] | 3.3 |
| LEEALYEYQPLQIETYGPHVWELE [P21W] | 1.75 |
| LEEALYEYQPLQIETYGPHVMELE [P21M] | 2.53 |
| LEEALYEYQPLQIETYGPHVPHLE [E22H] | 2.2 |
| LEEALYEYQPLQIETYGPHVPSLE [E22S] | 2.4 |
| LEEALYEYQPLQIETYGPHVPTLE [E22T] | 2.56 |
| LEEALYEYQPLQIETYGPHVPYLE [E22Y] | 2.49 |
| LEEALYEYQPLQIETYGPHVPNLE [E22N] | 2.31 |

| Variant | protein stability index |
| --- | --- |
| LEEALYEYQPLQIETYGPHVPFLE [E22F] | 1.97 |
| LEEALYEYQPLQIETYGPHVPQLE [E22Q] | 2.54 |
| LEEALYEYQPLQIETYGPHVPMLE [E22M] | 2.35 |
| LEEALYEYQPLQIETYGPHVPDLE [E22D] | 2.46 |
| LEEALYEYQPLQIETYGPHVPGLE [E22G] | 2.43 |
| LEEALYEYQPLQIETYGPHVPCLE [E22C] | 3.71 |
| LEEALYEYQPLQIETYGPHVPILE [E22I] | 1.84 |
| LEEALYEYQPLQIETYGPHVPVLE [E22V] | 2.56 |
| LEEALYEYQPLQIETYGPHVPLLE [E22L] | 2.35 |
| LEEALYEYQPLQIETYGPHVPRLE [E22R] | 2.35 |
| LEEALYEYQPLQIETYGPHVPKLE [E22K] | 2.31 |
| LEEALYEYQPLQIETYGPHVPALE [E22A] | 2.47 |
| LEEALYEYQPLQIETYGPHVPWLE [E22W] | 1.54 |
| LEEALYEYQPLQIETYGPHVPPLE [E22P] | 2.28 |
| LEEALYEYQPLQIETYGPIVPELE [H19I] | 1.57 |
| LEEALYEYQPLQIETYGPVVPELE [H19V] | 2.21 |
| LEEALYEYQPLQIETYGPNVPELE [H19N] | 2.82 |
| LEEALYEYQPLQIETYGPEVPELE [H19E] | 3.27 |
| LEEALYEYQPLQIETYGPPVPELE [H19P] | 2.01 |
| LEEALYEYQPLQIETYGPYVPELE [H19Y] | 2.62 |
| LEEALYEYQPLQIETYGPGVPELE [H19G] | 2.26 |
| LEEALYEYQPLQIETYGPQVPELE [H19Q] | 2.37 |
| LEEALYEYQPLQIETYGPWVPELE [H19W] | 1.5 |
| LEEALYEYQPLQIETYGPRVPELE [H19R] | 3.99 |

| Variant | protein stability index |
| --- | --- |
| LEEALYEYQPLQIETYGPSVPELE [H19S] | 2.69 |
| LEEALYEYQPLQIETYGPCVPELE [H19C] | 3.3 |
| LEEALYEYQPLQIETYGPLVPELE [H19L] | 2.33 |
| LEEALYEYQPLQIETYGPFVPELE [H19F] | 2.11 |
| LEEALYEYQPLQIETYGPDVPELE [H19D] | 2.76 |
| LEEALYEYQPLQIETYGPKVPELE [H19K] | 2.8 |
| LEEALYEYQPLQIETYGPMVPELE [H19M] | 2.09 |
| LEEALYEYQPLQIETYGPTVPELE [H19T] | 3.17 |
| LEEALYEYQPLQIETYGPHVPELY [E24Y] | 1.39 |
| LEEALYEYQPLQIETYGPHVPELM [E24M] | 2.14 |
| LEEALYEYQPLQIETYGPHVPELI [E24I] | 1.88 |
| LEEALYEYQPLQIETYGPHVPELV [E24V] | 2.19 |
| LEEALYEYQPLQIETYGPHVPELS [E24S] | 2.54 |
| LEEALYEYQPLQIETYGPHVPELR [E24R] | 1.95 |
| LEEALYEYQPLQIETYGPHVPELQ [E24Q] | 2.18 |
| LEEALYEYQPLQIETYGPHVPELL [E24L] | 2.19 |
| LEEALYEYQPLQIETYGPHVPELA [E24A] | 2.84 |
| LEEALYEYQPLQIETYGPHVPELF [E24F] | 1.91 |
| LEEALYEYQPLQIETYGPHVPELK [E24K] | 2.53 |
| LEEALYEYQPLQIETYGPHVPELP [E24P] | 1.93 |
| LEEALYEYQPLQIETYGPHVPELT [E24T] | 2.67 |
| LEEALYEYQPLQIETYGPHVPELN [E24N] | 2.35 |
| LEEALYEYQPLQIETYGPHVPELC [E24C] | 1.76 |
| LEEALYEYQPLQIETYGPHVPELW [E24W] | 1.45 |

| Variant | protein stability index |
| --- | --- |
| LEEALYEYQPLQIETYGPHVPELH [E24H] | 2.25 |
| LEEALYEYQPLQIETYGPHVPELG [E24G] | 2.03 |
| LEEALYEYQPLQIETYGPHVPELD [E24D] | 3.39 |
| LEEALYEYQPLQIETYGPHFPELE [V20F] | 2.36 |
| LEEALYEYQPLQIETYGPHKPELE [V20K] | 3.23 |
| LEEALYEYQPLQIETYGPHCPELE [V20C] | 2.15 |
| LEEALYEYQPLQIETYGPHHPELE [V20H] | 2.1 |
| LEEALYEYQPLQIETYGPHAPELE [V20A] | 3.26 |
| LEEALYEYQPLQIETYGPHLPELE [V20L] | 2.49 |
| LEEALYEYQPLQIETYGPHRPELE [V20R] | 2.58 |
| LEEALYEYQPLQIETYGPHMPELE [V20M] | 2.57 |
| LEEALYEYQPLQIETYGPHQPELE [V20Q] | 2.92 |
| LEEALYEYQPLQIETYGPHDPELE [V20D] | 2.36 |
| LEEALYEYQPLQIETYGPHWPELE [V20W] | 2.17 |
| LEEALYEYQPLQIETYGPHTPELE [V20T] | 2.38 |
| LEEALYEYQPLQIETYGPHEPELE [V20E] | 1.94 |
| LEEALYEYQPLQIETYGPHGPELE [V20G] | 3.45 |
| LEEALYEYQPLQIETYGPHPPELE [V20P] | 2.21 |
| LEEALYEYQPLQIETYGPHSPELE [V20S] | 2.57 |
| LEEALYEYQPLQIETYGPHNPELE [V20N] | 3.23 |
| LEEALYEYQPLQIETYGPHYPELE [V20Y] | 2.78 |
| LEEALYEYQPLQIETYGPHIPELE [V20I] | 2.4 |
